According to patent publication US10941182 (Amgen, dated 2021):
Starred links: 1 amine or outer side, 2 acyl side, 3 side chain; linkers in the order of their positions; H or OH if unused. Non-standard residues stand in square brackets, D forms with d. Primed or numbered codes have the meaning given here. *: point of attachment. NPipG = 2-(piperidin-4-ylamino)acetic acid, O=C(CN(C1CCN([*:3])CC1)[*:1])[*:2]; AC4Abu = α-carboxy-4-aminobutyric acid, O=C(C(CCN[*:1])C(=O)[*:3])[*:2]; Bip = N[C@@H](Cc1ccc(-c2ccccc2)cc1)C(=O)O; dBip = N[C@H](Cc1ccc(-c2ccccc2)cc1)C(=O)O; Oic = O=C(O)[C@@H]1C[C@@H]2CCCC[C@@H]2N1; Phe(4-Cl) = N[C@@H](Cc1ccc(Cl)cc1)C(=O)O; Phe(4-F) = N[C@@H](Cc1ccc(F)cc1)C(=O)O; Phe(4-I) = N[C@@H](Cc1ccc(I)cc1)C(=O)O; γGlu = O=C(O)[C@H](CCC(=O)[*:2])N[*:1]; d(β3hF) = N[C@@H](CC(=O)O)Cc1ccccc1; NMeR = CN[C@@H](CCCNC(=N)N)C(=O)O; Palmitoyl = CCCCCCCCCCCCCCCC(=O)*; hArg = N=C(N)NCCCC[C@H](N)C(=O)O; 3Pal = N[C@@H](Cc1cccnc1)C(=O)O; Cha = N[C@@H](CC1CCCCC1)C(=O)O; NMeL = CN[C@@H](CC(C)C)C(=O)O; αMeL = CC(C)C[C@](C)(N)C(=O)O; αMeOrn = C[C@](N)(CCCN)C(=O)O; β3hP = O=C(O)C[C@@H]1CCCN1; αMeS = C[C@](N)(CO)C(=O)O; Nle = CCCC[C@H](N)C(=O)O; Dab = NCC[C@H](N)C(=O)O; Pip′ = not defined here; Hexanoyl = CCCCCC(=O)*; AEEA = NCCOCCOCC(=O)O; Aib = CC(C)(N)C(=O)O; Ahx = NCCCCCC(=O)O; BLeu = β-leucine

Columns and labels:
rat APJ receptor = target: T1, rat APJ receptor (rat, UniProt Q9JHG3 1-377); experiment: cell-based or functional assay
T1 sequence (looked up): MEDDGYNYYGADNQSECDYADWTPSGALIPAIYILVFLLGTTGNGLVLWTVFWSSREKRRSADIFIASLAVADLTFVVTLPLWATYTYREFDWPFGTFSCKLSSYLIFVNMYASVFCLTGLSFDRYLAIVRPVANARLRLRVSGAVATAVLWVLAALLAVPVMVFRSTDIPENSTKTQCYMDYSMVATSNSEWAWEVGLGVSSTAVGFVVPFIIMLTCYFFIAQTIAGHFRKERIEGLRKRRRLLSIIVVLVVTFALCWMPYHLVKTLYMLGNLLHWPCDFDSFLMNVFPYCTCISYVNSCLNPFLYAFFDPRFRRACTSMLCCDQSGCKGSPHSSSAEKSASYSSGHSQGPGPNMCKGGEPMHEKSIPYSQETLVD

human APJ receptor = target: T2, human APJ receptor (human, UniProt P35414 1-380); experiment: cell-based or functional assay
T2 sequence (looked up): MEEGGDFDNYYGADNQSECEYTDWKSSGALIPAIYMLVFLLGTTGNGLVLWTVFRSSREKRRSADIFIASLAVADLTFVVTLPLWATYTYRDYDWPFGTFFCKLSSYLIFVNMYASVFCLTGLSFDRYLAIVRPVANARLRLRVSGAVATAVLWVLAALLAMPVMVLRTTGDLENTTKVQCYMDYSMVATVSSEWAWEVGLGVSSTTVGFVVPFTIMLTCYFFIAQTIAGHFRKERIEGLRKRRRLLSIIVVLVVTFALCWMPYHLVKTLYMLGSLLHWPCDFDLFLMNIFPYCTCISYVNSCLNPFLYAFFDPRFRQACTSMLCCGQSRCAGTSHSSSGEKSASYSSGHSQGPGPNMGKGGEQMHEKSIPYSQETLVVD

Binder | EC50 Rat APJ Receptor (rat APJ receptor) | EC50 Human APJ Receptor (human APJ receptor)
Hexanoyl-[γGlu][AEEA][AEEA][hArg][dR]Q[hArg]P[dR][NMeL]SHKG[Oic][Phe(4-I)]P[dBip]-OH (SMILES CCCCCC(=O)N[C@@H](CCC(=O)NCCOCCOCC(=O)NCCOCCOCC(=O)N[C@@H](CCCCNC(=N)N)C(=O)N[C@H](CCCNC(=N)N)C(=O)N[C@@H](CCC(N)=O)C(=O)N[C@@H](CCCCNC(=N)N)C(=O)N1CCC[C@H]1C(=O)N[C@H](CCCNC(=N)N)C(=O)N(C)[C@@H](CC(C)C)C(=O)N[C@@H](CO)C(=O)N[C@@H](Cc1c[nH]cn1)C(=O)N[C@@H](CCCCN)C(=O)NCC(=O)N1[C@H](C(=O)N[C@@H](Cc2ccc(I)cc2)C(=O)N2CCC[C@H]2C(=O)N[C@H](Cc2ccc(-c3ccccc3)cc2)C(=O)O)C[C@@H]2CCCC[C@@H]21)C(=O)O) [SEQ ID NO: 286] | 3.07 nM | 1.62 nM
Hexanoyl-[AC4Abu][AEEA][AEEA][hArg][dR]Q[hArg]P[dR][NMeL]SHKG[Pip′][Phe(4-I)]P[dBip]-OH [SEQ ID NO: 563] | 12.7 nM | 4.3 nM
XXXQRPRLSHKGPXPF ({hexanoyl}[AC4Abu][Aeea][Aeea]Q[NMehArg]P[NMeArg][aMeLeu]SHKGP[Nle]P[4-Cl-F]{COOH}) [SEQ ID NO: 561] | 5.94 nM | 1.21 nM
XXXQRPRLSHKGPXPF ({hexanoyl}[AC4Abu][Aeea][Aeea]QR[aMePro][hArg][aMeLeu]SHKGP[Nle]P[4-Cl-F]{COOH}) [SEQ ID NO: 560] | 0.274 nM | 0.0553 nM
Hexanoyl-[AC4Abu][AEEA][AEEA]QRP[NMeR][Cha]SHKG[Oic][Nle][Aib][Phe(4-Cl)]-OH (SMILES CCCCCC(=O)NCCC(C(=O)O)C(=O)NCCOCCOCC(=O)NCCOCCOCC(=O)N[C@@H](CCC(N)=O)C(=O)N[C@@H](CCCNC(=N)N)C(=O)N1CCC[C@H]1C(=O)N(C)[C@@H](CCCNC(=N)N)C(=O)N[C@@H](CC1CCCCC1)C(=O)N[C@@H](CO)C(=O)N[C@@H](Cc1c[nH]cn1)C(=O)N[C@@H](CCCCN)C(=O)NCC(=O)N1[C@H](C(=O)N[C@@H](CCCC)C(=O)NC(C)(C)C(=O)N[C@@H](Cc2ccc(Cl)cc2)C(=O)O)C[C@@H]2CCCC[C@@H]21) [SEQ ID NO: 562] | 16.3 nM | 3.85 nM
Hexanoyl-[Ahx][AC4Abu][AEEA][AEEA][hArg][dR]Q[hArg]P[dR][NMeL]SHKG[Oic][Phe(4-I)]P[dBip]-OH (SMILES CCCCCC(=O)NCCCCCC(=O)NCCC(C(=O)O)C(=O)NCCOCCOCC(=O)NCCOCCOCC(=O)N[C@@H](CCCCNC(=N)N)C(=O)N[C@H](CCCNC(=N)N)C(=O)N[C@@H](CCC(N)=O)C(=O)N[C@@H](CCCCNC(=N)N)C(=O)N1CCC[C@H]1C(=O)N[C@H](CCCNC(=N)N)C(=O)N(C)[C@@H](CC(C)C)C(=O)N[C@@H](CO)C(=O)N[C@@H](Cc1c[nH]cn1)C(=O)N[C@@H](CCCCN)C(=O)NCC(=O)N1[C@H](C(=O)N[C@@H](Cc2ccc(I)cc2)C(=O)N2CCC[C@H]2C(=O)N[C@H](Cc2ccc(-c3ccccc3)cc2)C(=O)O)C[C@@H]2CCCC[C@@H]21) [SEQ ID NO: 566] | 1.65 nM | 1.13 nM
XXXQRPRLSHKGPXPF ({HexDDA}[AC4Abu][Aeea][Aeea]QRP[NMeArg]LSHKGP[Nle]P[4-Cl-F]{COOH}) [SEQ ID NO: 512] | 4.59 nM | 0.658 nM
XXXQRPRLSHKGPXPF ({Oc}[AC4Abu][Aeea][Aeea]QRP[NMeArg]LSHKGP[Nle]P[4-Cl-F]{COOH}) [SEQ ID NO: 493] | 0.647 nM | 0.12 nM
XXXQRPRLSHKGPMPF ({ODDA}[AC4Abu][Aeea][Aeea]QRPRLSHKGPMPF{COOH}) [SEQ ID NO: 290] | 173 nM | 40.1 nM
Palmitoyl-[γGlu][AEEA][AEEA][dQ][hArg]P[dR][Cha]SHKG[Oic][Nle]P[d(β3hF)]-OH (SMILES CCCCCCCCCCCCCCCC(=O)N[C@@H](CCC(=O)NCCOCCOCC(=O)NCCOCCOCC(=O)N[C@H](CCC(N)=O)C(=O)N[C@@H](CCCCNC(=N)N)C(=O)N1CCC[C@H]1C(=O)N[C@H](CCCNC(=N)N)C(=O)N[C@@H](CC1CCCCC1)C(=O)N[C@@H](CO)C(=O)N[C@@H](Cc1c[nH]cn1)C(=O)N[C@@H](CCCCN)C(=O)NCC(=O)N1[C@H](C(=O)N[C@@H](CCCC)C(=O)N2CCC[C@H]2C(=O)N[C@@H](CC(=O)O)Cc2ccccc2)C[C@@H]2CCCC[C@@H]21)C(=O)O) [SEQ ID NO: 614] | 10.3 nM | 1.25 nM
Palmitoyl-[AC4Abu][AEEA][AEEA][dQ][NPipG]P[NMeR][Cha]SHKG[Pip′][Nle][Aib][Phe(4-Cl)]-OH [SEQ ID NO: 646] | 0.994 nM | 0.27 nM
Palmitoyl-[γGlu][AEEA][AEEA][dQ]RP[NMeR][αMeL][αMeS]HKG[Oic][Nle][β3hP][Phe(4-Cl)]-OH (SMILES CCCCCCCCCCCCCCCC(=O)N[C@@H](CCC(=O)NCCOCCOCC(=O)NCCOCCOCC(=O)N[C@H](CCC(N)=O)C(=O)N[C@@H](CCCNC(=N)N)C(=O)N1CCC[C@H]1C(=O)N(C)[C@@H](CCCNC(=N)N)C(=O)N[C@@](C)(CC(C)C)C(=O)N[C@@](C)(CO)C(=O)N[C@@H](Cc1c[nH]cn1)C(=O)N[C@@H](CCCCN)C(=O)NCC(=O)N1[C@H](C(=O)N[C@@H](CCCC)C(=O)N2CCC[C@H]2CC(=O)N[C@@H](Cc2ccc(Cl)cc2)C(=O)O)C[C@@H]2CCCC[C@@H]21)C(=O)O) [SEQ ID NO: 627] | 0.641 nM | 0.244 nM
Palmitoyl-[γGlu][AEEA][AEEA][dQ]RP[NMeR][αMeL][BLeu]HKG[Oic][Nle][β3hP][Phe(4-Cl)]-OH [SEQ ID NO: 628] | 0.773 nM | 0.309 nM
Palmitoyl-[γGlu][AEEA][AEEA][dQ]RP[NMeR][αMeL]S[Bip]KG[Oic][Nle][β3hP][Phe(4-Cl)]-OH (SMILES CCCCCCCCCCCCCCCC(=O)N[C@@H](CCC(=O)NCCOCCOCC(=O)NCCOCCOCC(=O)N[C@H](CCC(N)=O)C(=O)N[C@@H](CCCNC(=N)N)C(=O)N1CCC[C@H]1C(=O)N(C)[C@@H](CCCNC(=N)N)C(=O)N[C@@](C)(CC(C)C)C(=O)N[C@@H](CO)C(=O)N[C@@H](Cc1ccc(-c2ccccc2)cc1)C(=O)N[C@@H](CCCCN)C(=O)NCC(=O)N1[C@H](C(=O)N[C@@H](CCCC)C(=O)N2CCC[C@H]2CC(=O)N[C@@H](Cc2ccc(Cl)cc2)C(=O)O)C[C@@H]2CCCC[C@@H]21)C(=O)O) [SEQ ID NO: 629] | 5.3 nM | 2.45 nM
Palmitoyl-[γGlu][AEEA][AEEA][dQ]RP[NMeR][αMeL]SH[3Pal]G[Oic][Nle][β3hP][Phe(4-Cl)]-OH (SMILES CCCCCCCCCCCCCCCC(=O)N[C@@H](CCC(=O)NCCOCCOCC(=O)NCCOCCOCC(=O)N[C@H](CCC(N)=O)C(=O)N[C@@H](CCCNC(=N)N)C(=O)N1CCC[C@H]1C(=O)N(C)[C@@H](CCCNC(=N)N)C(=O)N[C@@](C)(CC(C)C)C(=O)N[C@@H](CO)C(=O)N[C@@H](Cc1c[nH]cn1)C(=O)N[C@@H](Cc1cccnc1)C(=O)NCC(=O)N1[C@H](C(=O)N[C@@H](CCCC)C(=O)N2CCC[C@H]2CC(=O)N[C@@H](Cc2ccc(Cl)cc2)C(=O)O)C[C@@H]2CCCC[C@@H]21)C(=O)O) [SEQ ID NO: 636] | 3.65 nM | 1.59 nM
Palmitoyl-[γGlu][AEEA][AEEA][dQ]RP[NMeR][αMeL]SH[Phe(4-F)]G[Oic][Nle][β3hP][Phe(4-Cl)]-OH [SEQ ID NO: 637] | 14.2 nM | 4.05 nM
Palmitoyl-[γGlu][AEEA][AEEA][dQ]RP[NMeR][αMeL]SH[αMeOrn]G[Oic][Nle][β3hP][Phe(4-Cl)]-OH (SMILES CCCCCCCCCCCCCCCC(=O)N[C@@H](CCC(=O)NCCOCCOCC(=O)NCCOCCOCC(=O)N[C@H](CCC(N)=O)C(=O)N[C@@H](CCCNC(=N)N)C(=O)N1CCC[C@H]1C(=O)N(C)[C@@H](CCCNC(=N)N)C(=O)N[C@@](C)(CC(C)C)C(=O)N[C@@H](CO)C(=O)N[C@@H](Cc1c[nH]cn1)C(=O)N[C@@](C)(CCCN)C(=O)NCC(=O)N1[C@H](C(=O)N[C@@H](CCCC)C(=O)N2CCC[C@H]2CC(=O)N[C@@H](Cc2ccc(Cl)cc2)C(=O)O)C[C@@H]2CCCC[C@@H]21)C(=O)O) [SEQ ID NO: 635] | 6.64 nM | 1.62 nM
Palmitoyl-[γGlu][AEEA][AEEA][dQ]RP[NMeR][αMeL]SH[Dab]G[Oic][Nle][β3hP][Phe(4-Cl)]-OH [SEQ ID NO: 638] | 9.32 nM | 3.2 nM
